These are literature values, as cited in PMC6504839.

Where two headings read alike, the source gives them in different places.

For series [1], the target named is integrin αIIbβ3 (Homo sapiens) (UniProt P08514).
For series [2] the target is unchanged. This is another data set of the same source.

In general, Kd refers to the concentration at which binding is half-saturated. Regarding Savignygrin (from UniProt Q8MVZ3), in series [1], the Kd is 60 nM.

In the case of Disagregin (from UniProt P36235), in series [2], the Kd was 40 nM.
